In the Human Domainome abundance scans (Beltran et al. 2025):
± gives the uncertainty stated by the source.

B1: Tesmin, residues 368 to 403; numbered along this chain, Q9Y4I5 (parent)
chain: KGCNCRRSGCLKNYCECYEAQIMCSSICKCIGCKNY

Variants of: B1
Assay: abundance fitness (aPCA) (normalised: wild type 0, dead -1); higher = more abundant; growth selection in yeast, the domain comes from the species named
Details: Homo sapiens

Row | Variant | abundance fitness
1 | KGCNCRRSGCLKNYCECYEAQIMCSSICGCIGCKNY [K29G] | 0.24 ± 0.066
2 | KGCNCRRSGCLKNYCECYEAQIMCSSICWCIGCKNY [K29W] | -0.186 ± 0.087
3 | KGCNCRRSGCLKNYCECYEAQIMCSSICSCIGCKNY [K29S] | 0.051 ± 0.09
4 | KGCNCRRSGCLKNYCECYEAQIMCSSICKCQGCKNY [I31Q] | 0.114 ± 0.1
5 | KGCNCRRSGCLKNYCECYEAQIMCSSICKCTGCKNY [I31T] | 0.211 ± 0.12
6 | KGCNCRRSGCLKNYCECYEAQIMCSSICKCEGCKNY [I31E] | 0.311 ± 0.09
7 | KGCNCRRSGCLKNYCECYEAQIMCSSICKCLGCKNY [I31L] | -0.021 ± 0.078
8 | KGCNCRRSGCLKNYCECYEAQIMCSSICKCAGCKNY [I31A] | 0.309 ± 0.08
9 | KGCNCRRSGCLKNYCECYEAQIMCSSICKCGGCKNY [I31G] | 0.15 ± 0.074
10 | KGCNCRRSGCLKNYCECYEAQIMCSSICKCNGCKNY [I31N] | 0.083 ± 0.12
11 | KGCNCRRSGCLKNYCECYEAQIMCSSICKCFGCKNY [I31F] | -0.171 ± 0.18
12 | KGCNCRRSGCLKNYCECYEAQIMCSSICKCWGCKNY [I31W] | -0.099 ± 0.081
13 | KGCNCRRSGCLKNYCECYEAQIMCSSICKCYGCKNY [I31Y] | -0.322 ± 0.24
14 | KGCNCRRSGCLKNYCECYEAQIMCSSICKCKGCKNY [I31K] | -0.108 ± 0.15
15 | KGCNCRRSGCLKNYCECYEAQIMCSSICKCRGCKNY [I31R] | 0.056 ± 0.067
16 | KGCNCRRSGCLKNYCECYEAQIMCSSICKCCGCKNY [I31C] | -0.02 ± 0.13
17 | KGCNCRRSGCLKNYCECYEAQIMCSSICKCVGCKNY [I31V] | 0.125 ± 0.074
18 | KGCNCRRSGCLKNYCECYEAQIMCSSICKCSGCKNY [I31S] | 0.147 ± 0.081
19 | KGCNCRRSGCLKNYCECYEAQIMCSSICKCPGCKNY [I31P] | 0.047 ± 0.11
20 | KGCNCRRSGCLKNYCECYEAQIMCSSICKCMGCKNY [I31M] | 0.081 ± 0.08
21 | KGCNCRRSGCLKNYCECYEAQIHCSSICKCIGCKNY [M23H] | -0.198 ± 0.1
22 | KGCNCRRSGCLKNYCECYEAQIKCSSICKCIGCKNY [M23K] | -0.057 ± 0.12
23 | KGCNCRRSGCLKNYCECYEAQIECSSICKCIGCKNY [M23E] | 0.106 ± 0.088

Row | Variant | abundance fitness
24 | KGCNCRRSGCLKNYCECYEAQIWCSSICKCIGCKNY [M23W] | -0.283 ± 0.14
25 | KGCNCRRSGCLKNYCECYEAQIQCSSICKCIGCKNY [M23Q] | -0.016 ± 0.15
26 | KGCNCRRSGCLKNYCECYEAQIDCSSICKCIGCKNY [M23D] | 0.152 ± 0.1
27 | KGCNCRRSGCLKNYCECYEAQITCSSICKCIGCKNY [M23T] | -0.419 ± 0.15
28 | KGCNCRRSGCLKNYCECYEAQISCSSICKCIGCKNY [M23S] | -0.081 ± 0.12
29 | KGCNCRRSGCLKNYCECYEAQIRCSSICKCIGCKNY [M23R] | -0.075 ± 0.092
30 | KGCNCRRSGCLKNYCECYEAQILCSSICKCIGCKNY [M23L] | -0.462 ± 0.14
31 | KGCNCRRSGCLKNYCECYEAQIGCSSICKCIGCKNY [M23G] | 0.127 ± 0.079
32 | KGCNCRRSGCLKNYCECYEAQIVCSSICKCIGCKNY [M23V] | -0.1 ± 0.089
33 | KGCNCRRSGCLKNYCECYEAQIPCSSICKCIGCKNY [M23P] | -0.136 ± 0.14
34 | KGCNCRRSGCLKNYCECYEAQIMCSSCCKCIGCKNY [I27C] | -1.72 ± 0.24
35 | KGCNCRRSGCLKNYCECYEAQIMCSSYCKCIGCKNY [I27Y] | -0.431 ± 0.14
36 | KGCNCRRSGCLKNYCECYEAQIMCSSQCKCIGCKNY [I27Q] | 0.176 ± 0.089
37 | KGCNCRRSGCLKNYCECYEAQIMCSSPCKCIGCKNY [I27P] | 0.118 ± 0.096
38 | KGCNCRRSGCLKNYCECYEAQIMCSSLCKCIGCKNY [I27L] | -0.089 ± 0.086
39 | KGCNCRRSGCLKNYCECYEAQIMCSSACKCIGCKNY [I27A] | 0.162 ± 0.079
40 | KGCNCRRSGCLKNYCECYEAQIMCSSVCKCIGCKNY [I27V] | 0.112 ± 0.085
41 | KGCNCRRSGCLKNYCECYEAQIMCSSKCKCIGCKNY [I27K] | 0.153 ± 0.091
42 | KGCNCRRSGCLKNYCECYEAQIMCSSSCKCIGCKNY [I27S] | 0.009 ± 0.076
43 | KGCNCRRSGCLKNYCECYEAQIMCSSECKCIGCKNY [I27E] | 0.207 ± 0.082
44 | KGCNCRRSGCLKNYCECYEAQIMCSSMCKCIGCKNY [I27M] | -0.014 ± 0.13
45 | KGCNCRRSGCLKNYCECYEAQIMCSSRCKCIGCKNY [I27R] | 0.085 ± 0.07
46 | KGCNCRRSGCLKNYCECYEAQIMCSSWCKCIGCKNY [I27W] | -0.703 ± 0.096

Row | Variant | abundance fitness
47 | KGCNCRRSGCLKNYCECYEAQIMCSSDCKCIGCKNY [I27D] | 0.119 ± 0.14
48 | KGCNCRRSGCLKNYCECYEAQIMCSSNCKCIGCKNY [I27N] | 0.04 ± 0.098
49 | KGCNCRRSGCLKNYCECYEAQIMCSSTCKCIGCKNY [I27T] | 0.159 ± 0.099
50 | KGCNCRRSGCLKNYCECYEAQIMCSSICKCIDCKNY [G32D] | -0.454 ± 0.13
51 | KGCNCRRSGCLKNYCECYEAQIMCSSICKCICCKNY [G32C] | -0.592 ± 0.23
52 | KGCNCRRSGCLKNYCECYEAQIMCSSICKCIACKNY [G32A] | -0.196 ± 0.084
53 | KGCNCRRSGCLKNYCECYEAQIMCSSICKCIECKNY [G32E] | -0.033 ± 0.11
54 | KGCNCRRSGCLKNYCECYEAQIMCSWICKCIGCKNY [S26W] | -1.91 ± 0.23
55 | KGCNCRRSGCLKNYCECYEAQIMCSPICKCIGCKNY [S26P] | -0.624 ± 0.28
56 | KGCNCRRSGCLKNYCECYEAQIMCSGICKCIGCKNY [S26G] | 0.089 ± 0.073
57 | KGCNCRRSGCLKNYCECYEAQIMCSDICKCIGCKNY [S26D] | -0.101 ± 0.16
58 | KGCNCRRSGCLKNYCECYEAQIMCSLICKCIGCKNY [S26L] | -0.559 ± 0.16
59 | KGCNCRRSGCLKNYCECYEAQIMCSEICKCIGCKNY [S26E] | 0.228 ± 0.11
60 | KGCNCRRSGCLKNYCECYEAQIMCSQICKCIGCKNY [S26Q] | 0.091 ± 0.1
61 | KGCNCRRSGCLKNYCECYEAQIMCSFICKCIGCKNY [S26F] | -0.651 ± 0.2
62 | KGCNCRRSGCLKNYCECYEAQIMCSNICKCIGCKNY [S26N] | -0.079 ± 0.26
63 | KGCNCRRSGCLKNYCECYEAQIMCSCICKCIGCKNY [S26C] | -0.98 ± 0.2
64 | KGCNCRRSGCLKNYCECYEAQIMCSRICKCIGCKNY [S26R] | -0.241 ± 0.081
65 | KGCNCRRSGCLKNYCECYEAQIMCSMICKCIGCKNY [S26M] | -0.384 ± 0.17
66 | KGCNCRRSGCLKNYCECYEAQIMCSAICKCIGCKNY [S26A] | 0.05 ± 0.077
67 | KGCNCRRSGCLKNYCECYEAQIMCSVICKCIGCKNY [S26V] | -0.159 ± 0.083
68 | KGCNCRRSGCLKNYCECYEAQIMCSKICKCIGCKNY [S26K] | 0.032 ± 0.11
69 | KGCNCRRSGCLKNYCECYEAQIMCSTICKCIGCKNY [S26T] | -0.095 ± 0.1
